Results: patent US7070771

Target: CD40 (human, on CLL B cells and CD40-positive tumor cell lines) (human) (UniProt P25942)
Assay: cell-based or functional assay

Sequence of UniProt P25942 (P25942 21-277): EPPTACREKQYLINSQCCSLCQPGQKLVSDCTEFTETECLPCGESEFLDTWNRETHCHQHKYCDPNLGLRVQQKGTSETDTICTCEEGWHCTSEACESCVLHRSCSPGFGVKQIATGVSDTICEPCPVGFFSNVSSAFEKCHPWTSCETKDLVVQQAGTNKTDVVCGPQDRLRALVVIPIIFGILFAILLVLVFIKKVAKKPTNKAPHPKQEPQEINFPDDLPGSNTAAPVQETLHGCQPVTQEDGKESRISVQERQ

% positive cells, Human CD80 (CLL cells): 26.7%
Substance: G28-5 (an anti-CD40 monoclonal antibody)
